Data as given in patent US12365732 (23ANDME, dated 2025).

T1: hu-CD96 isoform 2 on CHO cells (human, UniProt P40200 22-585)
T1 construct: also called CHO-CD96 (isoform 2); CD96-CHOs
T1 sequence: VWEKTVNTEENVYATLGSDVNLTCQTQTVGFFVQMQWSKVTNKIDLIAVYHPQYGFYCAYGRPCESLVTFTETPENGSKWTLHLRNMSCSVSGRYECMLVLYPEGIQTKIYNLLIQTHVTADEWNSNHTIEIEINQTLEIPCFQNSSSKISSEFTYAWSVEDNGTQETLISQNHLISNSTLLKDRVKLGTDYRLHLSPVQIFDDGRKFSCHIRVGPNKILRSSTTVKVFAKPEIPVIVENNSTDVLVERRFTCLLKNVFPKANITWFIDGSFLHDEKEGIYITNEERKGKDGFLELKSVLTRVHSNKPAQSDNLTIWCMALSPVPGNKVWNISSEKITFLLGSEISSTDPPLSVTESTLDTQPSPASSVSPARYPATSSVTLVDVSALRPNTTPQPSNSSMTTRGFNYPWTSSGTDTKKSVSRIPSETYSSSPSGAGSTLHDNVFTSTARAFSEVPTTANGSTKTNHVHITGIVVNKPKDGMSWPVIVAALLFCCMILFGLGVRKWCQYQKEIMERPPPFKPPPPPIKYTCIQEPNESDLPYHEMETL

T2: hu-CD96 isoform 1 on HEK293T cells (human, UniProt P40200 22-585)
T2 construct: Origene RC213845, transient expression; also called HEK293T-CD96 (iso1)
T2 sequence: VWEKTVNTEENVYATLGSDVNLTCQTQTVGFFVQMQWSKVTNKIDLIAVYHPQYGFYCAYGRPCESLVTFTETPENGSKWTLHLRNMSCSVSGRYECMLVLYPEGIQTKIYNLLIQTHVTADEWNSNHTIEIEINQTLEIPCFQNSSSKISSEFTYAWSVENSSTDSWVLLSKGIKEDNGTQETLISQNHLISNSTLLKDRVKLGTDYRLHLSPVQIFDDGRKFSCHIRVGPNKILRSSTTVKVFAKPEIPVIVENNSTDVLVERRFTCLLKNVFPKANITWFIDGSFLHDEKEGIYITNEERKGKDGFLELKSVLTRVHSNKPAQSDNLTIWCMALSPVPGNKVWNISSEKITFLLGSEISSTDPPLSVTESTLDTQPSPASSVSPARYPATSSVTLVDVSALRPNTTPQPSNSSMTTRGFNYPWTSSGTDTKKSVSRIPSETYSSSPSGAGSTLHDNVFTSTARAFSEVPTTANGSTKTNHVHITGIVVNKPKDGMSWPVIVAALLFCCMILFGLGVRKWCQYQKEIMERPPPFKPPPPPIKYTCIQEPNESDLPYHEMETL

B1: h10G1 IgG (humanized 10G1) (antibody, V domains shown)
VH: EIQLVQSGSELKKPGASVKVSCKASGYPFTTYGMSWVRQAPGQGLEWMGWINTDSGVPTYADDFKGRFVFSLDTSVSTAYLQISSLKAEDTAVYFCARNIYYGWGNFDYWGQGTLVTVSS
VL: EIVMTQSPDFQSVTPKEKVTITCRASQDIYRNLHWYQQKPDQTPKLLIKHASDSISGIPSRFSGSGSGTDFTLTINSLEAEDAAAYYCLQGYSMPYTFGGGTKVEIKG
notes: human IgG1 N297G
B2: mAb1.v7 IgG (humanized 12F8) (antibody, V domains shown)
VH: EVQLVQSGAEVKKPGASVKVSCKASGFTFTNNWMHWVRQAPGQGLEWIGMIHPNSGITNINEKFKNRVTMTTDTSTSTAYMELRSLRSEDTAVYYCRSDGTYEGYFDYWGQGTLVTVSS
VL: DIQLTQSPSSLSASVGDRVTITCKASQNVGTAIVWYQQKPGKAPKVLIYSASTRYTGVPSRFSGSGSGTDFTLTISSLQPEDFATYYCQQYSSSPLTFGQGTKVEIKG
notes: human IgG1 N297G

How the values were obtained:
huCD96D1-Fc = huCD96D1-Fc (human); assay: Octet, antibody on anti-Fc sensors
Description: Domain Binding Site Mapping mAb1.v7 and h10G1 were determined to bind the D1 domain of CD96. Epitope mapping experiments were performed on an OctetRed96 by capturing the antibodies on anti-Fc Octet sensors (ForteBio) and testing their binding to recombinant huCD96D1-Fc and huCD96D1D3.

[1] = target: T1, hu-CD96 isoform 2 on CHO cells; assay: FACS, CD155-Fc-FLAG 10 nM, Ab 0.16 nM
Description: CHO cells stably expressing isoform 2 of hu-CD96 (Origene, catalog #RC221005) were incubated with anti-CD96 antibodies for 20 minutes at 4° C. The cells were washed, and then incubated with 10 nM human CD155-Fc-FLAG for 30 minutes at 4° C. Cells were washed, and then human CD155-Fc-FLAG binding was detected by incubation with anti-FLAG-APC (Columbia Biosciences, catalog #D3-1718-1MG) for 20 minutes at 4° C. Cell binding was analyzed by flow cytometry with a CytoFLEX (Beckman Coulter). CD155 binding is represented as median fluorescence intensity (MedFI).
As shown in Table 20 (below), the anti-CD96 antibodies, mAb1.v7.NGS8, mAb1.v7.NGS9, mAb1.v7.NGS10, mAb1.v7.NGS11, and h10G1 inhibited soluble hu-CD155 binding to CD96-expressing CHO cells dose-dependently and potently. The antibody NK92.39 (Fuchs et al., 2004; Biolegend catalog #338405) inhibited receptor binding similarly.

[2] = target: T1, hu-CD96 isoform 2 on CHO cells; assay: FACS, Ab 10 nM
Description: (§1) Isoform 1 of hu-CD96 (Origene, catalog #RC213845) was transiently expressed in HEK293T cells following standard lipofectamine or Fugene transfection protocol. […] Cells were washed, and binding was detected by incubation with anti-mouse IgG-FITC (Biolegend, catalog #406001) for 20 minutes at 4° C. Cell binding was analyzed by flow cytometry with a CytoFLEX (Beckman Coulter). Binding curves were calculated as a percentage of cells positive for bound antibody.
Isoform 2 of hu-CD96 (DNA construct: Origene, catalog #RC221005) was expressed on a single-cell-clone-derived CHO stable cell line. Binding of the anti-CD96 antibodies to the CHO cells were determined as described above with isoform 1 of hu-CD96.

[3] = target: T2, hu-CD96 isoform 1 on HEK293T cells; assay: FACS, Ab 0.08 nM
Description: as §1

Sequence of huCD96D1-Fc (human) (chain, as listed by the source limits assumed): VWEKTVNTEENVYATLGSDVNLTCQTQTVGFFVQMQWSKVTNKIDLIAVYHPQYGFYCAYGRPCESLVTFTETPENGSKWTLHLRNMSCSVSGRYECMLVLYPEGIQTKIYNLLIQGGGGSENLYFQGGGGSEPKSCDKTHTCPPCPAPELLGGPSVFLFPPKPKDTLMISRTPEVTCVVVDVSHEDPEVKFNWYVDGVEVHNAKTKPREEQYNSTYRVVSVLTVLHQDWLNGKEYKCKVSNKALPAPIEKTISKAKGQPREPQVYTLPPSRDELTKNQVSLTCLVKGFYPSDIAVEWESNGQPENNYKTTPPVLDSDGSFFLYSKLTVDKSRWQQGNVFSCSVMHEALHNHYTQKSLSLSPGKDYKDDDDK

Binder | binding result (huCD96D1-Fc) | CD155-Fc binding (MedFI) [1] [MedFI] | % positive [2] [%] | % positive [3] [%]
B1 | binds | 21200 | – | –
B2 | binds | – | 44.8 | 0.8
